Assay results taken from patent publication US20190241886A1 (ADAGENE, published 2019).
Positions count from the first letter of the chain named. Each block holds one binder with its values, some of them ahead of it.

How the values were obtained:
[1] = molecular target: T1, Recombinant human CTLA4-Fc (human, UniProt P16410 36-161, limits assumed); assay: ELISA EC50 divided by EC50 of parental TY21580, data batch 1
T1 construct: Coated on the ELISA plate at 1 ug/mL; also called antigen; not shown: Fc part
T1 sequence (looked up): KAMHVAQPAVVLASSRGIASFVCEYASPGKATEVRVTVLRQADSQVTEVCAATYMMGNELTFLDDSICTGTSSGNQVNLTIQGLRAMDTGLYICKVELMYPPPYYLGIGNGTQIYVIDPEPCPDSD
Description: (§1) Recombinant human CTLA4-Fc was diluted to 1μg/mL in PBS and coated on a Maxisorp plate at 4° C. overnight. Plates were blocked with PBS supplemented with 3% non-fat milk at 37° C. for 1 hour. After washing, 100 μL of 3-fold serial dilutions of antibodies were added to each well. After incubation at 37° C. for 1 hour, plates were washed four times, and 100 μL HRP conjugated anti-human IgG (Fab specific) (1:6000 dilution) was added to each well. Plates were incubated at 37° C. for 1 hour, washed four times, and then 50 μL TMB substrate solution was added to each well, and the plate was incubated at room temperature. Absorbance at 450 nm was measured after the reactions were stopped with 50 μL H₂SO₄ per well. The EC₅₀ was evaluated by fitting the ELISA data using the asymmetrical sigmoidal (five-parameter logistic equation) model of GraphPad Prism 6 software.

[2] = molecular target: T1, Recombinant human CTLA4-Fc; assay: ELISA EC50 divided by EC50 of parental TY21580, data batch 2
Description: as §1

[3] = molecular target: T1, Recombinant human CTLA4-Fc; assay: ELISA EC50 divided by EC50 of parental TY21580, third block of Table 6
Description: as §1

[4] = molecular target: T1, Recombinant human CTLA4-Fc; assay: ELISA EC50 divided by EC50 of parental TY21580 (FIG. 24B)
Description: as §1

[5] = molecular target: T1, Recombinant human CTLA4-Fc; assay: ELISA EC50 divided by EC50 of parental TY21580 (FIG. 24A)
Description: as §1

[6] = molecular target: T1, Recombinant human CTLA4-Fc; assay: ELISA EC50 divided by EC50 of parental TY21580 (FIG. 25)
Description: as §1

[7] = molecular target: T2, Human CD137 displayed on yeast cells (human, UniProt Q07011 24-186, limits assumed); assay: flow cytometry on yeast cells displaying human CD137; column headed EC50 / KD (nM)
T2 construct: Yeast cells displaying human CD137, stained with serial dilutions of antibody; also called human CD137 on the cell surface
Description: (§2) The masking efficiency was then measured through flow cytometry. Briefly, yeast cells displaying human CD137 on their surface washed twice with PB SA buffer, and 50 μL (1×10̂6) cells were dispensed into each well of a 96 well plate. Cells were then incubated with 3-fold serial dilutions of antibodies for 1 hour on ice, washed once with PBSA buffer, and then incubated with 100 μL of PE conjugated mouse anti-human Fc (1 μg/ml) for 30 minutes on ice. The cells were then washed once prior to analysis by flow cytometry (Beckman® CytoFlex).

[8] = molecular target: T2, Human CD137 displayed on yeast cells; assay: flow cytometry on yeast cells displaying human CD137; ratio to parental TY21242
Description: as §2

Masking efficiency [1]: 826
Masking efficiency [2]: 385
B1: TY22404 (antibody, IgG1, V domains shown)
VH: EVQLVESGGGLVQPGGSLRLSCAASGYSISSGYHWSWIRQAPGKGLEWLARIDWDDDKYYSTSLKSRLTISRDNSKNTLYLQLNSLRAEDTAVYYCARSYVYFDYWGQGTLVTVSS
VL: EVGSYPNPSSDCVPYYYACAYSGRSAGGGGSPLGLAGSGGSDIQLTQSPSSLSASVGDRVTITCRASQSVRGRFLAWYQQKPGKAPKLLIYDASNRATGIPSRFSGSGSGTDFTLTISSLQPEDFATYYCQQSSSWPPTFGQGTKVEIKR
notes: IgG1 from HEK293F cells, uncleaved; also called peptide name B13197

Masking efficiency [3]: 489
B2: TY22566 (antibody, V domains shown)
VH: B1 VH
VL: B1 VL with S9A
notes: IgG1, uncleaved; mask derived from B13192 or B13197 to remove a potential glycosylation site

Masking efficiency [3]: 117
B3: TY22564 (antibody, V domains shown)
VH: B1 VH
VL: EVGSYYSAYPACDSHYPYCNSAGRSAGGGGSPLGLAGSGGSDIQLTQSPSSLSASVGDRVTITCRASQSVRGRFLAWYQQKPGKAPKLLIYDASNRATGIPSRFSGSGSGTDFTLTISSLQPEDFATYYCQQSSSWPPTFGQGTKVEIKR
notes: as for B2

Masking efficiency [3]: 144
B4: TY22563 (antibody, V domains shown)
VH: B1 VH
VL: B3 VL with N20Q, A22S
notes: as for B2

Masking efficiency [1]: 2210
Masking efficiency [2]: 377
B5: TY22402 (antibody, IgG1, V domains shown)
VH: B1 VH
VL: B3 VL with Y6I, S7V, A8H, Y9H, P10S, A11D, S14A, H15F, N20D, A22S
notes: IgG1 from HEK293F cells, uncleaved; also called peptide name B13180

Masking efficiency [1]: 110
Masking efficiency [2]: 48
B6: TY22401 (antibody, V domains shown)
VH: B1 VH
VL: EVGSYNFVADSCPDHPYPCSASGRSAGGGGSPLGLAGSGGSDIQLTQSPSSLSASVGDRVTITCRASQSVRGRFLAWYQQKPGKAPKLLIYDASNRATGIPSRFSGSGSGTDFTLTISSLQPEDFATYYCQQSSSWPPTFGQGTKVEIKR
notes: IgG1 from HEK293F cells, uncleaved; also called peptide name B13189

Masking efficiency [3]: 632
B7: TY22565 (antibody, V domains shown)
VH: B1 VH
VL: B1 VL with N7Q
notes: as for B2

Masking efficiency [4]: 554
Masking efficiency [5]: 243
B8: TY22402 (as listed in Table 11) (antibody, V domains shown)
VH: B1 VH
VL: EVGSYIVHHSDCDAFYPYCDSSGRSAGGGGTPLGLAGSGGSDIQLTQSPSSLSASVGDRVTITCRASQSVRGRFLAWYQQKPGKAPKLLIYDASNRATGIPSRFSGSGSGTDFTLTISSLQPEDFATYYCQQSSSWPPTFGQGTKVEIKR
notes: kept apart from m3; Expressed in mammalian cells; isotype not restated

Masking efficiency [4]: 572
Masking efficiency [5]: 308
Masking efficiency [6]: 469
B9: TY22404 (as listed in Tables 11 and 14) (antibody, V domains shown)
VH: B1 VH
VL: B1 VL with S31T
notes: kept apart from m5; Expressed in mammalian cells; isotype not restated

EC50 [7]: 0.00028 µM
Masking efficiency [8]: 1
B10: TY21242 (antibody, V domains shown)
VH: EVQLVESGGGLVQPGGSLRLSCAASGFSLSTGGVGVGWIRQAPGKGLEWLALIDWADDKYYSPSLKSRLTISRDNSKNTLYLQLNSLRAEDTAVYYCARGGSDTVIGDWFAYWGQGTLVTVSS
VL: DIQLTQSPSSLSASVGDRVTITCRASQSIGSYLAWYQQKPGKAPKLLIYDASNLETGVPSRFSGSGSGTDFTLTISSLQPEDFATYYCQQGYYLWTFGQGTKVEIK
notes: Anti-human-CD137 antibody; the isotype of the parent is not restated; also called parental antibody TY21242; parental CD137 antibody

EC50 [7]: 0.0108 µM
Masking efficiency [8]: 38.3
B11: TY22591 (antibody, V domains shown)
VH: B10 VH
VL: EVGSYSSTHAHCHHSPANCISSGRSAGGGGSPLGLAGSGGSDIQLTQSPSSLSASVGDRVTITCRASQSIGSYLAWYQQKPGKAPKLLIYDASNLETGVPSRFSGSGSGTDFTLTISSLQPEDFATYYCQQGYYLWTFGQGTKVEIK
notes: Full IgG4 expressed in mammalian cells, uncleaved

EC50 [7]: 0.00861 µM
Masking efficiency [8]: 30.5
B12: TY22598 (antibody, V domains shown)
VH: B10 VH
VL: EVGSYSNNFASCLWRHRSCADSGRSAGGGGSPLGLAGSGGSDIQLTQSPSSLSASVGDRVTITCRASQSIGSYLAWYQQKPGKAPKLLIYDASNLETGVPSRFSGSGSGTDFTLTISSLQPEDFATYYCQQGYYLWTFGQGTKVEIK
notes: as for B11

EC50 [7]: 0.00586 µM
Masking efficiency [8]: 20.8
B13: TY22596 (antibody, V domains shown)
VH: B10 VH
VL: EVGSYYHDYDDCRVLPRRCFNSGRSAGGGGSPLGLAGSGGSDIQLTQSPSSLSASVGDRVTITCRASQSIGSYLAWYQQKPGKAPKLLIYDASNLETGVPSRFSGSGSGTDFTLTISSLQPEDFATYYCQQGYYLWTFGQGTKVEIK
notes: as for B11

EC50 [7]: 0.0981 µM
Masking efficiency [8]: 348
B14: TY22599 (antibody, V domains shown)
VH: B10 VH
VL: B13 VL with Y6T, H7D, D8N, D11Y, R13P, V14R, P16R, R18K, F20Y, N21H
notes: as for B11

EC50 [7]: 0.107 µM
Masking efficiency [8]: 379
B15: TY22595 (antibody, V domains shown)
VH: B10 VH
VL: EVGSYNDYNYHCKWRPSRCHNSGRSAGGGGSPLGLAGSGGSDIQLTQSPSSLSASVGDRVTITCRASQSIGSYLAWYQQKPGKAPKLLIYDASNLETGVPSRFSGSGSGTDFTLTISSLQPEDFATYYCQQGYYLWTFGQGTKVEIK
notes: as for B11

Masking efficiency [8]: 300 fold
B16: TY22586 (antibody, V domains shown)
VH: B10 VH
VL: EVGSYPTDLDACADAPNHCHFSGRSAGGGGSPLGLAGSGGSDIQLTQSPSSLSASVGDRVTITCRASQSIGSYLAWYQQKPGKAPKLLIYDASNLETGVPSRFSGSGSGTDFTLTISSLQPEDFATYYCQQGYYLWTFGQGTKVEIK
notes: as for B11

EC50 [7]: 0.0236 µM
Masking efficiency [8]: 83.7
B17: TY22594 (antibody, V domains shown)
VH: B10 VH
VL: B13 VL with Y6D, H7T, D11F, R13P, V14I, P16R, R17H, F20D, N21S
notes: as for B11
